# Source: patent publication US20200095340A1
# Molecular target: biotinylated human DLL3 protein expressed as a human IgG1 fusion protein (human) (UniProt Q9NYJ7)
# Assay: Octet BLI; biotinylated huDLL3-IgG1 fusion on streptavidin tips; single 50 nM; conditioned medium
# biotinylated human DLL3 protein expressed as a human IgG1 fusion protein (human), sequence (Q9NYJ7 other isoform, or with tags, fused parts or gaps): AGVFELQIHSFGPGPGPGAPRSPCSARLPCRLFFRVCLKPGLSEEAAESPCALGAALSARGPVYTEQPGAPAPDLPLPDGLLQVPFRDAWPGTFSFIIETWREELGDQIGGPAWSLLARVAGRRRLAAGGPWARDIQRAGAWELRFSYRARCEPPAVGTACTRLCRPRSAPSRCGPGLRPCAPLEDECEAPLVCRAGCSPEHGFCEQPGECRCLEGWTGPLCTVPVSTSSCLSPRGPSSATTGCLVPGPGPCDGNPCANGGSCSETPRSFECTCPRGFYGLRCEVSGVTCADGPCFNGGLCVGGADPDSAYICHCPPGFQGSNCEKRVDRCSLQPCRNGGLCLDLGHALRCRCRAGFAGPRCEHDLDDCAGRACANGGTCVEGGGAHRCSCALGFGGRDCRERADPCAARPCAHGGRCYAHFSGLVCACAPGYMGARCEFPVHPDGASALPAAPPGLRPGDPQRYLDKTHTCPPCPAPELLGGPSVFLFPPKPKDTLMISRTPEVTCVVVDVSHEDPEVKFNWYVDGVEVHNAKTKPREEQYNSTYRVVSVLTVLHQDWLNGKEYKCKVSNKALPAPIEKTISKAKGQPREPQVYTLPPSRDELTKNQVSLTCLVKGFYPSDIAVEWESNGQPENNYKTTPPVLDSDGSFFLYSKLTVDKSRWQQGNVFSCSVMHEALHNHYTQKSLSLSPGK
row,Binder,Kd
1,"anti-DLL3 trispecific protein 2D06 (protein, part only; not given: anti-CD3 and anti-albumin domains, part only) chain, part: EVQLVESGGGLVQPGGSLTLSCVASGSTSSINAMGWYRRAPGKQRELVAGISSDGSKVYSDSVKGRFTISRDNAKNSVYLQMNSLRAEDTAVYYCYYFRTVSGSSSRYWGQGTLVTVSSGGGGSGGGSGGGGSGGGSHHHHHH",6.6 nM
2,"anti-DLL3 trispecific protein 2C06 (protein, part only; not given: CD3 binder and albumin binder, part only) chain, part: EVQLVESGGGLVQPGGSLTLSCVASGSTNSINAMGWYRRAPGKQRELVAGISSDGSKVYKDSVKGRFTISRDNAKNSVYLQMNSLRAEDTAVYYCYYYRTVSGSSMRYWGQGTLVTVSSGGGGSGGGSGGGGSGGGSHHHHHH",6.7 nM
3,"anti-DLL3 trispecific protein 1G011 (protein, part only; not given: CD3 binder and albumin binder, part only) chain, part: EVQLVESGGGLVQPGGSLTLSCVASGSTSSINAMAWYRRAPGKQRELVAGISSDGSKVYADSVKGRFTISRDNAKNSVYLQMNSLRAEDTAVYYCYYFKTVSGSSMRYWGQGTLVTVSSGGGGSGGGSGGGGSGGGSHHHHHH",6.8 nM
4,"anti-DLL3 trispecific protein 2F09 (protein, part only; not given: anti-CD3 fragment and anti-albumin domain, part only) chain, part: EVQLVESGGGLVQPGGSLTLSCVASGSTSSINAMAWYRRAPGKQRELVAGISSDGSKLYADSVKGRFTISRDNAKNSVYLQMNSLRAEDTAVYYCYYFRTVSGSSMRYWGQGTLVTVSSGGGGSGGGSGGGGSGGGSHHHHHH",6.5 nM
5,"anti-DLL3 trispecific protein 2C04 (protein, part only; not given: anti-CD3 fragment and anti-albumin sdAb, part only) chain, part: EVQLVESGGGLVQPGGSLTLSCVASGSTSSRNAMGWYRRAPGKQRELVAGISSDGSKLYADSVKGRFTISRDNAKNSVYLQMNSLRAEDTAVYYCYYFRTVLGSSMRYWGQGTLVTVSSGGGGSGGGSGGGGSGGGSHHHHHH",6.8 nM
6,"anti-DLL3 trispecific protein 4C03 (protein, part only; not given: CD3 fragment and albumin sdAb, part only) chain, part: EVQLVESGGGLVQPGGSLTLSCAASGSKVSFMSMAWYRQAPGKKRELVAGISVDGSTDYIDSVKGRFTISRDNAKNSVYLQMNSLRAEDTAVYYCYAYRWRTRYTYWGQGTLVTVSSGGGGSGGGSGGGGSGGGSHHHHHH",6.6 nM
7,"anti-DLL3 trispecific protein 4C06 (protein, part only; not given: CD3 fragment and albumin sdAb, part only) chain, part: EVQLVESGGGLVQPGGSLTLSCAASNSSVSKLSMAWYRQAPGKKRELVAGISADGSTAYIDSVKGRFTISRDNAKNSVYLQMNSLRAEDTAVYYCYAYRWSTRYTYWGQGTLVTVSSGGGGSGGGSGGGGSGGGSHHHHHH",6.8 nM
8,"anti-DLL3 trispecific protein 3A011 (protein, part only; not given: CD3 binder and albumin binder, part only) chain, part: EVQLVESGGGLVQPGGSLTLSCAASGSSVSFLSLAWYRQAPGKKRELVAGISTDGSTDYIDSVKGRFTISRDNAKNSVYLQMNSLRAEDTAVYYCYAYRWRTRYTYWGQGTLVTVSSGGGGSGGGSGGGGSGGGSHHHHHH",6.8 nM

# Further binders by falling Kd, results first:
row,Kd,Binder
1,6.8 nM,"anti-DLL3 trispecific protein 4C02 (protein, part only; not given: CD3 fragment and albumin sdAb, part only) chain, part: EVQLVESGGGLVQPGGSLTLSCAASGSKVSFLSMAWYRQAPGKKRELVAGISADGSTTYIDSVKGRFTISRDNAKNSVYLQMNSLRAEDTAVYYCYAYRWTTRFTYWGQGTLVTVSSGGGGSGGGSGGGGSGGGSHHHHHH"
2,6.6 nM,"anti-DLL3 trispecific protein 1G01 (protein, part only; not given: CD3 binder and albumin binder, part only) chain, part: EVQLVESGGGLVQPGGSLTLSCVASGSTSSINAMAWYRRAPGKQRELVAGISSDGSKVYAESVKGRFTISRDNAKNSVYLQMNSLRAEDTAVYYCYYFRTVSGASMRYWGQGTLVTVSSGGGGSGGGSGGGGSGGGSHHHHHH"
3,6.6 nM,"anti-DLL3 trispecific protein 2B02 (protein, part only; not given: CD3 binder and albumin binder, part only) chain, part: EVQLVESGGGLVQPGGSLTLSCVASGSTSSINAMAWYRRAPGKQRELVAGISSDGSKVYADSVKGRFTISRDNAKNSVYLQMNSLRAEDTAVYYCYYFRTKSGSSMRYWGQGTLVTVSSGGGGSGGGSGGGGSGGGSHHHHHH"
4,6.5 nM,"anti-DLL3 trispecific protein 1A010 (protein, part only; not given: anti-CD3 fragment and anti-albumin domain, part only) chain, part: EVQLVESGGGLVQPGGSLTLSCVASGSTSSINAYGWYRRAPGKQRELVAGISSDGSKVYADSVKGRFTISRDNAKNSVYLQMNSLRAEDTAVYYCYYFRTVYGSSMRYWGQGTLVTVSSGGGGSGGGSGGGGSGGGSHHHHHH"
